A short description of the series: label from the status in PepcDB records.
As to “MIMIDLSLIWIVIIAVGVFIYIVLDGFDLGIGILFPFIKDQHERDVMMNTVAPVWDGNETWMVLGGAGLFAAFPMVYSAVLSALYLPIILMVIALIFRGVAFEFRFKANRTKHLWDAAFIGGSIISSFLQGVILGAYIQGIHIVDGRYAGGGLDWLTPFSLFTGVGVVVVYAALGCGWLIMKTDHRLQLNMYSLMPKLMYALLIIFVCVSIYTPLSQPQIAARWFTQPQLTYFSPVPILVVIFTFLTVRACSKRQESMPFLYTLALVFLAYTGFLISIFPYIIPPSVTIWDAAAPANSQLFALIGALILIPIIIMYTIMAYWVFRDKVRVGDEGYH”, the protein production entry is given as “failed”. Consider “MIMLNKQGITISLCMIVRDEEETIARCLETVEKIVDEIIVVDTGSVDRTKEIVEKYTSNIYDFQWIDDFAAARNFSFSKATQEYILWLDADDVLLEDAQEALKLLKRELDPKIDAVSMPYHLAMDSNGKPLYCTKRNRLVKREKQFQWFGKVHEYLAISGEVFSSNVAITHKKEKKVTNRNLKIFQNTVAAGEELSPRDLFYYANESTDNQKYDDAVLLYETFLNQDEGWYEEKIYACGKLGDCYAKLGMWEKAIESCVKSFRYDVPRGENCTRIGYIYMEQEKYNEAIFWFKLATEVPMATESPFHSPASYTWLPYLQMCICYSRLGEQDKAYYYNELAASYVPNNAAIEYNRKYFRGVFDKPYKVLEHHHHHH”, for which the protein production result is reported as “failed”. As to “MIMSKESIIFVGLFTVILSAVILMLSYTSSGQELNQYVKIEVQQGDTLWSIADQVADTKKINKNDFIEWVADKNQLQTSDIQPGDELVIPLKKKHQDAYELATVR”, the protein production result was “failed”. To “MIPELPHAQLDWDDQGRPRSRVFDDVYFSSESGLDETRHVFIEQNRLGQRFAALADGERFVIGETGFGTGLNFLCAWQLFQQQAPTGARLHFVSVEKYPLSPADLQRALALWPELASFSAPLLEQYVAVHGGFQRIVLEGGRVILTLLIGDALEQLPQLDAQVDAWFLDGFAPAKNPDMWTAELFAELARLAAPGSTISTFTSTGWVRRLLNSAGFKMKRTPGIGHKWEVLRGEFLGWPEDAPAPARARPWFARPALGEKTALVIGGGLAGCASAASLAARGWQVQLLERHAELAREASGNPQGVLYLKLSAHGTALSQMILSGFGYTRRQLEHLQRGQDWDGCGVLQLAFNAKEAERQAQLAAAFPADLLHLLDQPQAQARAGIGLEHGGLFYPEGGWVHPPALCQWQASHPRIQVLAHREVLELRRVDEQWQAWDGDRMLASAAVVILAGAAEIKRFPASADLPLKRIRGQITRLPQTAQSQSLATVVCAEGYVAPARLGEHTLGASFDFKSQDLTPTSAEHAGNLEMLREISSDLLQRLGAEQLPLDSLQGRAAFRCTSPDYLPIVGPLADPLAFAETYAALGKDARQVPDLPCPWLDGLYINSGHGSRGLITAPLSGELLAAWLENEPLPLPRSVAEACHPNRFALRRLIRGKA” belongs “failed”.

With “MIPGMNAKQMKKMERQMKKMGMDMKDLKGVKEVIIRLEDKELVIPNAEVSLMNVMGQETYQVTGKAHEVAIDEELVIPDEDIEMVANQANVSEDEAKAALEDTNGDLAEAILKLNQ”, the protein production entry is given as “failed”. Turning to “MIPLSESFESGIPAIWKTIDADGDGYNWMHLTNFTGQSGLCVSSASYIGGVGALTPDNYLITPELKLPTDALVEIIYWVCTQDLTAPSEHYAVYSSSTGNNAADFVNLLYEETLTAKRIQSPELIRGNRTQGVWYQRKVVLPNDTKYVAFRHFNSTDNFWLNLDEVSI”, the protein production entry is on record as “failed”. As for “MIPVFNITSNRGRLLQQISVGDIWGVGRQWANKLISRGIHTAYDLAMTNPHLLKKCFNAVLMRTAMELQGIACGGLEVLEHHHHHH”, the protein production result is reported as “failed”.

In the case of “MIPYLYVLAAAFLWGTSFVAGKIAFGVADAPLIVLARFAMAGLFWLPVFCRSVRSVPSSRWGALLLLSFLMIPATFLLQFMGLQYTSATSATLMIGFEPLMVMLVGWLIWREQMTALHLLLGTVALAGVLLVMGWPSGANFLGCLLVLLSTVVVAIWVRWSKIWMQSLSVNAFTALTTVLGTIMLIPFALFLTNDWQVNLSTQGASALLYLGVGCSLGAGWLWNMGMRSIPANAGGMFLALEPIFGVIFAVALLYEPLGATTLAGIGLVVIPVLVISVLPVLQARRLPEAC”, the protein production result was “failed”. Take “MIQAQTAAPPHAKVTAILLFTTLMWGGSFLFNKIGMREVPPVHFFFFRFALAALLMGGVCLPRLARLNRHIAVRGAVVGLALAAVNLTFVLGVSGTTISRAGYLNNLFVLFIPLLTFALWRERVDRVTFGGIALAVVGLWALASGGAEGFNQGDLLSTVCALFIAIHIIAVSRVLRDEDVYLVTFVQFVTVAAVGLVLCLVLPWPEFTIGRAGAWSLAYCALFPTVICFTLQNAYQRFTTPTRAGLIYTLDPVWSMLFGVFILGERLTPRELAGCVLILMAVAGPLLARLYLEQRHRRLYRLDGAEGT”: the protein production entry was “failed”.

For the sequence “MIQEKHLTFTINLLVSLFFLTILIIPKGYNYAPIILSAIGLIYFIPLKKKLSFSSEDKKLIFSFLFYFFTFLLSIIINKDGIREIDNPSRLLLFIPLLLLFKNFPIKRKTILYAIPSSALITGCVALFQKFALGYEKPFPETMHIQMGNIAISLATFSIVITLHFFIKKQYKSTLFGFVAIILAIMTSALSGARGGWIGLPVVVGIILFLYKEFINKKLIITLIAIITIGLTALITSPKFGIEKRYNAAKSDIVSYLEKNNRNTSLGARFDMWENALIAIKEAPIFGHGSDGYDEFRHKQVKSKQMAKTTLNFGSLHNQYLESWVKRGLVGFIALILIILTPIFYFIKNLNTHNLETKCICILGIIHIVSHIFYFTSQSFLAHNSGNIFYFSAMLCFIV”, the protein production entry is recorded as “failed”. Take “MIQITVVQIDNYGPWTVTPNPRRESDLQALQSRLYCDMNLQFGAHKGLAFYTRFDNIIAITNGIDLETHKRIQNSVKNRYPFTVSMAVASAETAYEAQKLATKTIQEYGSAQDDVRKEVLDVANEFVSNGYVQLAHVDINDITGKLTDLETAYDTYLSVQKTKLKLMEELKKYDSLGFFIGGDNFMCPCNGMNEKDFLCMFEDIKDSCGIELKAGIGIGKTAEDASNLADIGLEVIREGKTDSQVYTLKQEIDEQKNVPYNYMCPI”: the protein production result was “failed”.

Turning to “MIQRTKAKVMGAPTPMAGLALGIASLGWSWENFAELHGYGQWISAGIASVLLVILATKFLLHNHLLREDLAHPVVGSVVPTFAMGTMVVSNSLGHFYPLAGDVLWLIAVVLHIVFLVSFVYHRAKDFELHHMVPSWFVPPVGIIVADVSFSGNPMLAPVAQGALTFGMVAYAIMLPMMIYRFMFTHEIPDAAKPTMAIMAAPASLSLAGYLTVTATPSPVIIAMLFGIAVLMTAIIYLAFFKLLRLPFSPGYAAFTFPMVIGATALFKMANWMELQGLAAHYVQQVRGLAGLELIVATFVVSYVALQYINNLLIQPRLMHAHHA”, the protein production entry is reported as “not failed”. For the sequence “MIQSQINRNIRLDLADAILLSKAKKDLSFAEIADGTGLAEAFVTAALLGQQALPADAARLVGAKLDLDEDSILLLQMIPLRGCIDDRIPTDPTMYRFYEMLQVYGTTLKALVHEKFGDGIISAINFKLDVKKVADPEGGERAVITLDGKYLPTKPF”, the protein production entry is on record as “not failed”.

Turning to “MIRALSMHLLDRLTIRLFHDERQKQFSGDHARSLGWSSTESQFLRFKTMTQAINFEQKTVLDLGCGYGDFKTFLDMSCCIKSYTGVDQQSSFIKQAKSLFKHHTNCEFIKADFSATTLPKADIVVASGSLNYRARNKTYHAKVIKEMYERAEEAVIFNLLNSEHFTSSSLLEAHDPQQVLKYCLSFCPDSELITDYANEDFTIVMRHSNSSKLEHHHHHH”, the protein production result is reported as “not failed”. In the case of “MIREKALEFHKNNFPGNGKIEVIPKVSLESREELTLAYTPGVAEPCKEIARDPGKVYEYTSKGNLVAVVSDGSRILGLGNIGPLAGLPVMEGKALLFKRFGGVDAFPIMIKEQEPNKFIDIVKAIAPTFGGINLEDIASPKCFYILERLREELDIPVFHDDQQGTAAVVLAGLLNALKVVGKKISEITLALFGAGAAGFATLRILTEAGVKPENVRVVELVNGKPRILTSDLDLEKLFPYRGWLLKKTNGENIEGGPQEALKDADVLISFTRPGPGVIKPQWIEKMNEDAIVFPLANPVPEILPEEAKKAGARIVATGRSDYPNQINNLLGFPGIFRGALDVRARTITDSMIIAAAKAIASIVEEPSEENIIPSPLNPIVYAREARAVAEEAMKEGVARTKVKGEWVEEHTIRLIEFYENVIAPINKKRREYSKAITRA”, the protein production entry is reported as “not failed”. Take “MIRFTMMPGEDGDCLLLEYGDGTFLRRILLDGGRSGTYPRIRPTLAGLDGLVDVLVVTHVDQDHLLGVLALLNDPDRSVEFGDVWFNGFDHLLEFEGFGAQDGEKLTSALVEQKLPWNDAFGGLSVEVGRELVWFDDGSTVDVLSPDRGQLESLAPDWVKECAKHGLIPGRDPDEIPLVPGFEHFGGVNVEELAARPFRPDTSKTNLTSIGLLFEFEGKRIILTGDADDRRLVRSIRPRAEAEGGRLHVDVLKVAHHGSDHNLSKDLLDLIDCDRYLISTSGARHDHPNAIAVARILKHGGAKKEIVFNYRDRAAIWDVDSLKDRFGYTVTAPAPDAEDGFVSFEL”: the protein production entry is “failed”.

On to “MIRLGKMSDLDQILNLVEEAKELMKEHDNEQWDDQYPLLEHFEEDIAKDYLYVLEENDKIYGFIVVDQDQAEWYDDIDWPVNREGAFVIHRLTGSKEYKGAATELFNYVIDVVKARGAEVILTDTFALNKPAQGLFAKFGFHKVGEQLMEYPPYDKGEPFYAYYKNLKE”, for which the protein production entry is listed as “failed”.

Take “MIRVLFFIRMTMSRTIQRICLFLFCLPVFGSCMKWDYGEMEDFSVSASGLFITNEGNFQYSNATLSYYDPATCEVENEVFYRANGFKLGDVAQSMVIRDGIGWIVVNNSHVIFAIDINTFKEVGRITGFTSPRYIHFLSDEKAYVTQIWDYRIFIINPKTYEITGYIECPDMDMESGSTEQMVQYGKYVYVNCWSYQNRILKIDTETDKVVDELTIGIQPTSLVMDKYNKMWTITDGGYEGSPYGYEAPSLYRIDAETFTVEKQFKFKLGDWPSEVQLNGTRDTLYWINNDIWRMPVEADRVPVRPFLEFRDTKYYGLTVNPNNGEVYVADAIDYQQQGIVYRYSPQGKLIDEFYVGIIPGAFCWK”: the protein production result is recorded as “failed”.

Regarding “MISDIRKDAEVRMDKCVEAFKTQISKIRTGRASPSLLDGIVVEYYGTPTPLRQLASVTVEDSRTLKINVFDRSMSPAVEKAIMASDLGLNPNSAGSDIRVPLPPLTEERRKDLTKIVRGEAEQARVAVRNVRRDANDKVKALLKDKEISEDDDRRSQDDVQKLTDAAIKKIEAALADKEAELMQF”, the protein production result is given as “not failed”. With “MISDLPDDLESEILSRVPTKSLAKLQTMGNTRLVVWDSSTGETRWIKPRTRFRNDDYYGLGYVNSKSSGHSFKILRSCYYRNDQKQWVAEFEIYEFGSDTWRVLDYFTHDYGVFSSGGPLKRNTYWVAGDKEMGMFMLYFDFTRERFGHFPLPFKSFNREDTASLSVVREEKLSVLHQKILEFSNEMKIWLTNKIDETIELSWSNFVLTVDYDKFNLPSVVNVASFLLDEENKVAVCSDIDVDDENRTRVYVVGEDIYKQVYKDTTKASYFNCSTSCSIYW”, the protein production result was “failed”. Then “MISGFESIQLTTLILIVVAGFAAGWVDAVVGGGGLIQLPALLLVPGITPVQALATNKMGSIFGTTTSAVTYYRRVGPDLKTAVPMAVIALAGSFGGAILAASLPASVFKPIIVLALIAVAIFTALRPGAGELTALRHDGHKHYVVACLIGAVIGFYDGLIGPGTGSFLVIALVSAMGYAFLEASAKAKIVNMATNAGALIFFLPHGSLLWGVGLILGLANMAGGYLGARTAVARGSKFVRLVFLMVVAALIIKLGMDVWNENFAA”, with “failed”.
